Two molecules from patent publication US20180057604A1 (Genentech, published 2018) can be followed below.

Positions count from the first letter of the chain named. Read-outs that look alike come from different tables or passages of the source.

Assay [1] deals with T1, murine BACE1 ECD.
T1 construct: analyte of the Octet assay (200 nM) and enzyme of the first short substrate assay
Kind of assay: Octet, pH 7.5.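 Further: antibodies captured on anti-human capture biosensor tips, dissociation followed in PBS with BSA buffer, kinetics fitted with a one-to-one binding model.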 In general terms: Biolayer interferometry detects binding as a change in optical thickness at a sensor tip.

For assay [2], the target named is T2, human BACE1 ECD.
T2 construct: analyte of the Octet assay (200 nM) and enzyme of the first short substrate assay; also called human BACE1 extracellular domain
Kind of assay: Octet, pH 7.5.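 Further: antibodies captured on anti-human capture biosensor tips, dissociation followed in PBS with BSA buffer, kinetics fitted with a one-to-one binding model.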

Assay [3] concerns the target T3, human BACE1 (R&D Systems) (human, UniProt P56817).
T3 construct: recombinant, commercial (R&D Systems)
Kind of assay: SPR (Biacore). (Surface plasmon resonance follows binding to a sensor surface in real time, without labels.)

In assay [4] the target is T1, murine BACE1 ECD. Kind of assay: cell-based or functional assay.
Assay [5] concerns the target T2, human BACE1 ECD. Kind of assay: cell-based or functional assay.
Assay [6] concerns the target BACE1 (HTRF long substrate and FRET short substrate assays of Example 9D). Kind of assay: cell-based or functional assay.
Assay [7] deals with T1, murine BACE1 ECD. Kind of assay: Octet, pH 7.5, second run.
For assay [8], the target named is T2, human BACE1 ECD. Kind of assay: Octet, pH 7.5, second run.
Assay [9] addresses T1, murine BACE1 ECD. Kind of assay: Octet, pH 5.0.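 Further: antibodies captured on anti-human capture sensor tips, dissociation monitored in PBS with BSA buffer, kinetics fitted with a one-to-one binding model.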
The target in assay [10] is T2, human BACE1 ECD. Kind of assay: Octet, pH 5.0.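 Further: antibodies captured on anti-human capture sensor tips, dissociation monitored in PBS with BSA buffer, kinetics fitted with a one-to-one binding model.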
Assay [11] addresses T1, murine BACE1 ECD. Kind of assay: Octet, pH 5.0, second run.
Assay [12] has as its target T2, human BACE1 ECD. Kind of assay: Octet, pH 5.0, second run.
Assay [13] concerns the target T4, BACE1 in primary mouse cortical neurons (mouse, UniProt P56818 46-501). Kind of assay: cell-based or functional assay.
Assay [14] deals with T4, BACE1 in primary mouse cortical neurons. Kind of assay: cell-based or functional assay. This is another data set of the same source.

T1 sequence (single chain, as listed by the source limits assumed): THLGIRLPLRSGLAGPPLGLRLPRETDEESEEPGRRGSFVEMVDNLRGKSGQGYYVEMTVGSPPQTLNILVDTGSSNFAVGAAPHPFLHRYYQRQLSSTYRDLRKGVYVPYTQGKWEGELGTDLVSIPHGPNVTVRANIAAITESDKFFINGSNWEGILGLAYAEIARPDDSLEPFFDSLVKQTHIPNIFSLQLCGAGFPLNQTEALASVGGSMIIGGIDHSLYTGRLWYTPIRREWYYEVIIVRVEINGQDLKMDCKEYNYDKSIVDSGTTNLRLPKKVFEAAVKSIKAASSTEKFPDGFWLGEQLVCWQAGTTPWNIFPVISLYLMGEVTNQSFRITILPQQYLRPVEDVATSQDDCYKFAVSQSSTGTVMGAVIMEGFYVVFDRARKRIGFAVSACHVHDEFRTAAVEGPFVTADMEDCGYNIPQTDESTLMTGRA
T2 sequence (single chain, as listed by the source limits assumed): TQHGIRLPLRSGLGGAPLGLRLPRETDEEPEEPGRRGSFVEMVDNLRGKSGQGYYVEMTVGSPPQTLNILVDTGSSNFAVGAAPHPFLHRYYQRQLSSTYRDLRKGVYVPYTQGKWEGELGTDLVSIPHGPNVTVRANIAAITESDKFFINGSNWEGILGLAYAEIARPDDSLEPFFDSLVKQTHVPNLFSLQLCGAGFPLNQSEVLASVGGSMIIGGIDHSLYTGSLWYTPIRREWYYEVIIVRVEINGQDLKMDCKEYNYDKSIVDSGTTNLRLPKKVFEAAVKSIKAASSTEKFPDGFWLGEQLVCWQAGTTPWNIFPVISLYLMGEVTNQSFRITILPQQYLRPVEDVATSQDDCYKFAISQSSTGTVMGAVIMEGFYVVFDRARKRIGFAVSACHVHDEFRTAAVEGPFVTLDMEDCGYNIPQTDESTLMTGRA
T4 sequence (P56818 46-501): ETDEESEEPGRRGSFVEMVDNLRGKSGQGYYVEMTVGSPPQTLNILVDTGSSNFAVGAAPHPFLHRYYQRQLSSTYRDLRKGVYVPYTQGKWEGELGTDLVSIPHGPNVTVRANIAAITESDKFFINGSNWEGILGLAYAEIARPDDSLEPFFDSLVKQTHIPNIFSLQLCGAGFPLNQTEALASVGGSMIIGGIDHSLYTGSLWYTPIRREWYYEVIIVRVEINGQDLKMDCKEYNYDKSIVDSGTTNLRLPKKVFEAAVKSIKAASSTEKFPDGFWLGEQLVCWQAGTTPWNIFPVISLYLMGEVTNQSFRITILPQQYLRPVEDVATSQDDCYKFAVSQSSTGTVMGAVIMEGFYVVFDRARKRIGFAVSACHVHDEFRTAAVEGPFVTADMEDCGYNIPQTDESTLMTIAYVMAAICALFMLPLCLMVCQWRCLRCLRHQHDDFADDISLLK
T3 sequence (P56817 22-457 limits assumed): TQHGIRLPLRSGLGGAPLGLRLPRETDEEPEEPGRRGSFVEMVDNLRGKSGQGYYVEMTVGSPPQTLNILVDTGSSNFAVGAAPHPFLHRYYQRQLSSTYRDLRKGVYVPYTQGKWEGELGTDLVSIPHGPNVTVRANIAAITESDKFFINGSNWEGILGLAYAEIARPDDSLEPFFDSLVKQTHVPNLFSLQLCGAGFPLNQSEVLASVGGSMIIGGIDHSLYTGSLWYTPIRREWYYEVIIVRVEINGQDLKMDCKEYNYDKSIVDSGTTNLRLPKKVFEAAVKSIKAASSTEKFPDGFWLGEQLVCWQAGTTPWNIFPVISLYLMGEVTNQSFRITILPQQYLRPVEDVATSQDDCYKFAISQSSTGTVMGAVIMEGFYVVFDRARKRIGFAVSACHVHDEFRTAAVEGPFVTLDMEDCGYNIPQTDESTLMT

B1: 5894 (antibody, V domains shown)
VH: QVQLVQSGAEVKKPGSSVKVSCKASGGTFSGYAISWVRQAPGQGLEWMGNIIPGFGTANYAQKFQGRVTITADESTSTAYMELSSLRSEDTAVYYCARSGGTKYGMLDVWGQGTMVTVSS
VL: EIVMTQSPATLSVSPGERATLSCRASQSVGSNLAWYQQKPGQAPRLLIYGASTRATGIPARFSGSGSGTEFTLTISSLQSEDFAVYYCQQLYTWPPRTFGGGTKVEIK
notes: anti-BACE1 IgG
For orientation: Kd means the constant that tells how readily two partners part at equilibrium. A lower Kd goes with higher affinity. Take B1: the Kd with murine BACE1 ECD [1] was 0.86 nM; with human BACE1 ECD [2], 0.27 nM; in assay [3], 2.95 nM; in the assay with murine BACE1 ECD [7], under 0.4 nM; in the assay with human BACE1 ECD [8] it was under 0.38 nM; with murine BACE1 ECD [9], 0.65 nM. Moreover, the dissociation constant (Kd) with human BACE1 ECD [10] was 0.3 nM; with murine BACE1 ECD [11], under 0.38 nM; in the assay with human BACE1 ECD [12], under 0.27 nM. The “% inhibition of BACE1 activity, short FRET substrate” value with murine BACE1 ECD [4] and with human BACE1 ECD [5] was 69% in each case. The “EC50, FRET short substrate” value in assay [6] came to 8.58 nM. In assay [6], the “EC50, HTRF long substrate” value stood at 1.79 nM. Moreover, in assay [13], the “IC50, Abeta x-40 in mouse cortical neurons” value was 6.48 nM. Moreover, the “IC50, Abeta x-40 in mouse cortical neurons (5894*, second run)” value in assay [13] amounted to 5.43 nM. For the same molecule, in [13], the “maximal % inhibition of Abeta x-40” value stood at 78%.

B2: 5905 (antibody, V domains shown)
VH: QLQLQESGPGLVKPSETLSLTCTVSGGSISWSSYYWSWIRQPPGKGLEWIGSIYRSGRTYYNPSLKSRVTISVDTSKNQFSLKLSSVTAADTAVYYCARVGHGISYFDLWGRGTLVTVSS
VL: B1 VL with M4L, V13L, G30S, N32Y, G50D, T53K, E70D, Q79E, S80P, L91V
notes: anti-BACE1 IgG
Turning to B2, the Kd came to 1.4 nM in the assay with murine BACE1 ECD [1]; 1.3 nM with human BACE1 ECD [2]; 3.53 nM in assay [3]; 0.4 nM with murine BACE1 ECD [7]; 0.51 nM with human BACE1 ECD [8]; 1.1 nM with murine BACE1 ECD [9]. The Kd with human BACE1 ECD [10] was 1.1 nM; in the assay with murine BACE1 ECD [11] it was 0.38 nM; with human BACE1 ECD [12] it was 0.27 nM. Further, the “IC50, Abeta x-40 in mouse cortical neurons” value in assay [14] worked out at 0.33 nM. Also, the “IC50, Abeta x-40 in mouse cortical neurons (5905*, second run)” value in assay [14] was 0.83 nM. Also, in assay [14], the “maximal % inhibition of Abeta x-40” value is 65%. The “% inhibition of BACE1 activity, short FRET substrate” value in the assay with murine BACE1 ECD [4] worked out at 72%; with human BACE1 ECD [5] it was 65%. Also, the “EC50, FRET short substrate” value in assay [6] was found to be 1.33 nM. Moreover, in assay [6], the “EC50, HTRF long substrate” value was 3.91 nM.
